The series is described as follows: yeast display, Sf9 membrane polyspecificity reagent, FACS + sequencing; frameworks hold sequencing errors. In short, it runs like this: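 In a synthetic yeast display library (Saccharomyces cerevisiae BJ5465), nanobody expression was induced with galactose for 36–48 hours. FACS gates were set low and high (top ~1%) using anti-HA fluorescence for expression and streptavidin fluorescence for binding of the Sf9 membrane reagent. Each polyreactivity label is drawn from the gate of origin.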
On to “QVQLVESGGGLDQAGGSLRLSCAASASTFYANAMGWYRQSPGKEREFVAAIDWSGATTYYADSVKGRFTISRDNAMNTVYLQMNSLKPEDTAVYYCAAEVYFLATGTWYDYWGLGTQVTVSS”, for which the “polyreactivity (PSR sort gate)” value is “high polyreactivity”. On to “QVQLVESGGGLDQAGGSLRLSCAASGAIFPIYAMGWYRQAPGKERELVAAINRSGGSTYYADSVKGRFTISRDTAKNTVYLQMNSLKPEDSAVYYCNADYGYHNQLFWGYYGWSSDHWGQGTQVTVSS”, for which the “polyreactivity (PSR sort gate)” value is “low polyreactivity”. Next, “QVQLVESGGGLDQAGGSLRLSCAASGFIFKYYVMGWYRQAPGKERELVAAISLSDARTNYADSVKGRFTISRDNAKNTVYLQMHSLKPVDTAFYYCAAKSHYYTSGHRHYDYWGQGTQVTVSS”: “high polyreactivity”; “QVQLVESGGGLDQAGGSLRLSCAASGFIFNNYAMGSYRQAPGKERELVAAITWSGGGTYYADSVKGRFTISRDNAKNTVYLQMNSLKPEDTAVYYCADYYPAYRDEYWGQGTQVTVSS”: “high polyreactivity”. In the case of “QVQLVESGGGLDQAGGSLRLSCAASGFIFPAYAMGWYRQAPGKERELVAAITTRGGSTYYADSVKGRFTISRDNAKNTVYLQMNSLKPEDTAVYYCAAYAVWYRYYYWGQGTQVTVSS” it was “low polyreactivity”; in that of “QVQLVESGGGLDQAGGSLRLSCAASGFIFSYYTMGWYRHAPGKERELVAAIRSSGGSTYADSVKGRFTISRDNAKNTVYLQMNSLKPEDTAVYYCAAESYYPAGIRGYWGQGTQVTVSS”, “high polyreactivity”; in that of “QVQLVESGGGLDQAGGSLRLSCAASGFIFVYNVMGWYRQAPGKEREFVATITWRGVTTYYADSVKGRFTISRDNAKNTVYLQMNSLKPEDTAVYYCAVTVAYSYPRRSHYYWGQGTQVTVSS”, “low polyreactivity”. Next, “QVQLVESGGGLDQAGGSLRLSCAASGFIFYQNAMGWYKQAPGKERELFAAISTTGSRTYYADSVKGRFTISRDNPKNTVYLQMNRLKPVDTAVYYCATPLQQEGDWGQGTQVTVSS”: “high polyreactivity”; “QVQLVESGGGLDQAGGSLRLSCAASGFILDTYGMGWYRQATGTERELVAAISQSDVSTYYADSVKGRFTISRDNAKNTVYLQMNSLKPEDTAVYYCAAAHLSYRRRYESWGQGTQVTVSS”: “low polyreactivity”; “QVQLVESGGGLDQAGGSLRLSCAASGGIFDDYAKGRYRQAPRKERELVAAISSSGGSTYYADSVKGRFTISLDNAKNTVYLQMNSLKPEYTAVYLCNADSRGSFGYWGQGTQVTVSS”: “high polyreactivity”. On to “QVQLVESGGGLDQAGGSLRLSCAASGIIFGTNAMGWYIQAPGKESELVAAITWSGGNTTYADSVKGRFTISRDNAKNTVYLQMNSLKPEDTAVYYCAADFTRAGDYDYWGQGTQVTVSS”, for which the “polyreactivity (PSR sort gate)” value is given as “low polyreactivity”. “QVQLVESGGGLDQAGGSLRLSCAASGIIFPVYARGGYRQAPGKERELVAAISSVGSTNYADSVKGRFTISRDNAKNTVYLQMNSLKPEDTAVYYCAVDWAQEDGYWGQGPQVTVSS”: the “polyreactivity (PSR sort gate)” value is “low polyreactivity”. Next, “QVQLVESGGGLDQAGGSLRLSCAASGIIFSLYAMGSYRQAPGKERELVAAISASDGDTYYADSVKGRFTISRDNAKNTVYLQMNSLKPEDTAVYYCAADATYYLGYEAEYYYWGQGTQVTVSS”: “low polyreactivity”; “QVQLVESGGGLDQAGGSLRLSCAASGIIFWEYAMGWYRQAPGKERELVAAINARGTRTYYADSVKGRFTISRDNAKNTVYLQMNSLKPEDTAVYYCAADRYGWTRYDSWGQGTQVTVSS”: “high polyreactivity”; “QVQLVESGGGLDQAGGSLRLSCAASGIIPYYYVMGWYRQAPGKERELVAAINRSGTSTYYADSVKGRFTISRDNAKNTVYLQMNSLKPEDTAVYYCAAERYWSGGVFDYDYWGQGTQVTVSS”: “high polyreactivity”. In the case of “QVQLVESGGGLDQAGGSLRLSCAASGITFKSNAMGWYRQAPGKESELVAAISRRASSTYYADSVKGRFTISRDNAKHTVYLQMNSLKPEDTAVYYCNAVLPVYRTNMDYWGQGTQVTVSS” it was “high polyreactivity”; in that of “QVQLVESGGGLDQAGGSLRLSCAASGITFKSYAMGWYRQAPGKERELVAAITYRSGSTYYADSVKGRFTISRDNAKNTVYLQMNSLKPEDTAVYYCAVGGKFQIQTYYQRYNYWGQGTQVTVSS”, “high polyreactivity”; in that of “QVQLVESGGGLDQAGGSLRLSCAASGITFQWYTMGWYIQAPGKERDLVATISSGGSTNYADSVKGRFTISRDNAKNTVYLQMKSLKPEDTAVYYCAKQPTVYHHYGLGYWGQGTQVTVSS”, “low polyreactivity”.

In the case of “QVQLVESGGGLDQAGGSLRLSCAASGITFSTYAMGWYRQAPGKEREFVAAISASGGTTYYADSVKGRFTISRDNAKNTVYLQMNSLKPEDTAVYYCAADRFRVYLIYIWAMGYWGQGTQVTVSS”, the “polyreactivity (PSR sort gate)” value is reported as “high polyreactivity”. “QVQLVESGGGLDQAGGSLRLSCAASGITFYRYVKGWYRQAPGKEREYVAAINWSTGTTNYADSVKGRFTISRDNAKNTVYFQMNILKPEDTAVYYCNARYRLRYIYSLRYDYWGQGTHVTVSS”: the “polyreactivity (PSR sort gate)” value is recorded as “high polyreactivity”. In the case of “QVQLVESGGGLDQAGGSLRLSCAASGLTFPTNARGWYRQAPGKEREFVAAITSRGGTTYYADSVKGRFTISRDNAKNTVYLQMNSLKPEETAVYYCGALSVTIYQYDSYGYWGQGTQVSVSS” it was “low polyreactivity”. In the case of “QVQLVESGGGLDQAGGSLRLSCAASGLTFQWNAMGWYRQAPGKERELVAGITDIGDSTYYADSVKGRFTISRDNAKHTDYLQLNSLKPEDTAVYYCNATSGYKHAWRSENGYWGQGTQVTVSS” it was “low polyreactivity”; in that of “QVQLVESGGGLDQAGGSLRLSCAASGLTFYYYAMGWYRQAPGKERELVAAITWRGVSTYYADSVKGRFTISRDNAKNTVYLQMNSLKPEDTAVYYCAAGWTSSRYDFWGQGTQVTVSS”, “high polyreactivity”.

In the case of “QVQLVESGGGLDQAGGSLRLSCAASGMTFHPYAMGWYRQAPGKERELVAAISSRGTSTYYADSVKGRFTISRDIAKNTVYLQMNSLKPEDTAVYYCAAEVITIGLYRYGYWGQGTQVTVSS”, the “polyreactivity (PSR sort gate)” value is reported as “high polyreactivity”. Next, “QVQLVESGGGLDQAGGSLRLSCAASGNTSPVNAMGWYRQAPGKERELVAAITQSGGSTYYADSVKGRFTISRDNAKNTVYLQMNSLKPEDTAVYYCAAPDAGWRDGGDYWGQGTQVTVSS”: “low polyreactivity”; “QVQLVESGGGLDQAGGSLRLSCAASGRIFIKNTMGWYRQAPGKERELVAAITSSGSSTYYADSVKGRFTISRDNAKNTVYLKMNSLKPEDTAVYYCNALTWDHSRTGVDYWGQGTQVTVSS”: “low polyreactivity”; “QVQLVESGGGLDQAGGSLRLSCAASGRIFKRYAMGWYRQAPGKERELVAAITRSGTRTYYADSVKGRFTISRDNAKNTVYLQMNSLKPEDTAVYYCAAALGWYSAFGYWGQGTQVTVSS”: “high polyreactivity”.

For the sequence “QVQLVESGGGLDQAGGSLRLSCAASGRIFNKYAMGWYRQAPGKERELVAAISSGASTYYADSVKGRFTISRDNAKNTVYLQMNSLKPEDTAVYYCAAGGSKGGNYWGQGTQVTVSS”, the “polyreactivity (PSR sort gate)” value is reported as “high polyreactivity”. Next, “QVQLVESGGGLDQAGGSLRLSCAASGRIFQYYAMGWYRQAPGKERELVAAITSGGRTTYADSVKGRFTISRDNAKNNVYLQMNSLKPEDTAVYYCNAKTWYSYNYWGQGTQVTVSS”: “high polyreactivity”. Take “QVQLVESGGGLDQAGGSLRLSCAASGRIFRPNAMGWYRQAPGKERELVAAITSGGSTNYADSVKGRFTISRDNAKNTVYLQMNSLKPEDNAVYYCAKGYKYGKNIYYYWGQGTQVTVSS”: the “polyreactivity (PSR sort gate)” value was “high polyreactivity”.

For the sequence “QVQLVESGGGLDQAGGSLRLSCAASGRIFRYNAMVWYRQAPGKERELVASISGTSRTKYADSVKGRFTISRDNAKNTVYLQMNSLKPEDTAVYYCAARRYGWGRAQSSASYDHWGQGTQVTVSS”, the “polyreactivity (PSR sort gate)” value is listed as “high polyreactivity”. Next, “QVQLVESGGGLDQAGGSLRLSCAASGRIFTAYAMGWYRQAHGKERELVAAISSGDSTYYADSVKGRFTISRDNAKNTVYLQMNSLKPEDTAVYYCATGVYPDFEYDSWGQGTQVTVSS”: “low polyreactivity”; “QVQLVESGGGLDQAGGSLRLSCAASGRIFTVYAMGGYRQAPGKERELVAAISGRGGRTYYADSVKGRFTISRDIAKNTVYLQMNSLKPEDTAVYYCNADTLTLTRPDGDIHTVWMDYWGQGTQVTVSS”: “low polyreactivity”. “QVQLVESGGGLDQAGGSLRLSCAASGRNFTRYAMGWYRQAPGKERELVAVITRSGGSTYYADSVKGRFTISRDNAKNTVYLQMNSVKPEDTAVYYCDAKYYGEMYYWGQRTQVTVSS”: the “polyreactivity (PSR sort gate)” value is reported as “low polyreactivity”. Next, “QVQLVESGGGLDQAGGSLRLSCAASGRTFAYYAIGWYRQAPGKERELVATITSYVGRTYYADSVKGRFTISRDNAKKSVYLQMNSLKPDDTAVYYSNARDWGRTRGGGYPWLYRYDYWGQGTQVTVSS”: “low polyreactivity”. As for “QVQLVESGGGLDQAGGSLRLSCAASGRTFFDYAMGWYRQATGKERELVAAINWSGGRTYYADSVKGRFTISRDNAKNTVYLQMISLKPEDTAVYYCAAIYGSLYPTGQTRRDYYSWGQGTKVTVSS”, the “polyreactivity (PSR sort gate)” value is given as “low polyreactivity”. For “QVQLVESGGGLDQAGGSLRLSCAASGRTFGTYVMGWSRQAPGKERELVAAITGSGGSTYYADSVKGRFTISRDIAKNSVYLQMNSLKPEDTAVYYCSAKYRRPRYGFWGQGTQVTVSS”, the “polyreactivity (PSR sort gate)” value is “high polyreactivity”. On to “QVQLVESGGGLDQAGGSLRLSCAASGSIFAYYVMGWYRQAKGKERELVAAITSVGSTNYADSVKGRFTISRDNAKNTVYLQMNSLKPEESAVFYCAADQYQARYYYWGQGTQVTVSS”, for which the “polyreactivity (PSR sort gate)” value is reported as “low polyreactivity”. Next, “QVQLVESGGGLDQAGGSLRLSCAASGSIFDSNALGWYRQAPGKERELVASITSSGGSTYYADSVKGRFTISRDKAKNTVYLQMNSLKPEDTAVYYCAADSYKTKHDAYDYCGQGTQVTVSS”: “high polyreactivity”. Next, “QVQLVESGGGLDQAGGSLRLSCAASGSIFDSYVMGWYRQAPGKERDLVAAFSRGGSTYYADSVKGRFTISRDNAQNTVYLQINSLKPEDTSVYYCAAGYRVHSPDDCYWGQGTQVTVSS”: “low polyreactivity”. In the case of “QVQLVESGGGLDQAGGSLRLSCAASGSIFGYYAMGWYRQAPGKERELVAAISWSDGSTYYADSVKGRFTISRDNAKNTVYLQMNSLKPEDTAVYSCAARFTPYITSDDGHYDYWGQGTEVTVSS” it was “low polyreactivity”.

(Values after the nanobody polyreactivity screen of Harvey et al. (2022).)
